Experimental data: US20080214408A1

Columns and labels:
[1] = molecular target: GFP-Tus-His6 fusion protein (E. coli) (UniProt P16525); test: protein microarray, fluorescence; fusion protein made in situ and held on plasmid with wild-type Ter site, detected with Cy3-labeled anti-his antibody
[2] = molecular target: GFP-Tus-His6 fusion protein (E. coli) (UniProt P16525); test: protein microarray, fluorescence; fusion protein made in situ and held on plasmid with mutant Ter site (SEQ ID NO: 12), detected with Cy5-labeled anti-his antibody
[3] = molecular target: GFP-Tus-His6 fusion protein (E. coli) (UniProt P16525); test: protein microarray, fluorescence; fusion protein made in situ and held on plasmid with mutant Ter site (SEQ ID NO: 12), detected with Cy3-labeled anti-his antibody
[4] = molecular target: GFP-Tus-His6 fusion protein (E. coli) (UniProt P16525); test: protein microarray, fluorescence; fusion protein made in situ and held on plasmid with wild-type Ter site, detected with Cy5-labeled anti-his antibody

monoclonal antibody to the poly-his tag (Sigma-Aldrich), labeled with Cy3 or Cy5
Cy3 Signal Intensity (Background subtracted) (arbitrary units) [1]: 20600
Cy5 Signal Intensity (Background subtracted) (arbitrary units) [2]: 4740
Cy3 Signal Intensity (Background subtracted) (arbitrary units) [3]: 10900
Cy5 Signal Intensity (Background subtracted) (arbitrary units) [4]: 14000
